These results are taken from patent US12104178B2, “DHFR tunable protein regulation” (Obsidian Therapeutics, Inc., priority 2017, dated 2024).

One test concerns HCT-116. The experiment in a line: Surface expression of IL15-IL15Ra fusion constructs, PE-IL15Ra antibody FACS. The conditions noted are these: for Median Fluorescence Intensity, surface IL15-IL15Ra: 24 h. The class given is cell-based, human. How it is done: Membrane bound-IL15-IL15Ra constructs (OT-IL15-008 to OT IL-15-011) were transduced into human colorectal carcinoma cell line, HCT-116 and stable integrants were selected with 2 μg of puromycin.
Surface expression of IL15-IL15Ra fusion constructs was examined by staining with PE-conjugated IL15Ra antibody (Cat no. 330207, Biolegend, San Diego, CA). The median fluorescence intensity obtained with the different constructs in the presence or absence of the corresponding ligand is presented in Table 53. The stabilization ratio was calculated as the fold change in fluorescence intensity in ligand treated samples compared to treatment with DMSO (i.e. in the absence of ligand) with the same construct. The destabilization ratio was calculated as the fold change in fluorescence intensity in the DD regulated constructs compared to the constitutive construct (OT-IL15-008) in the absence of the ligand. Destabilization ratios less than 1 and stabilization ratios greater than 1 are desired in DDs.
Membrane bound-IL15-IL15Ra constructs (OT-IL15-008 to OT IL15-011) were transduced into human colorectal carcinoma cell line, HCT-116 and stable integrants were selected with 2 μg of puromycin.
Surface expression of IL15-IL15Ra fusion constructs was examined by staining with PE-conjugated IL15Ra antibody (Cat no. 330207, Biolegend, San Diego, CA). The median fluorescence intensity obtained with the different constructs in the presence or absence of the corresponding ligand is presented in Table 55.
The stabilization ratio was calculated as the fold change in GFP intensity in ligand treated samples compared to treatment with DMSO (i.e. in the absence of ligand) with the same construct. The destabilization ratio was calculated as the fold change in GFP intensity in the DD regulated constructs compared to the constitutive construct (OT-IL15-008) in the absence of the ligand. Destabilization ratios less than 1 and stabilization ratios greater than 1 are desired in DDs.

For a further test, the system named is HEK-293T cells. Briefly: IL15 western blot of DD IL15-IL15Ra, transient transfection. In kind it is cell-based, human. Conditions: 10 μM Trimethoprim or 1 μM Shield-1, 24 h. The method, then: To test ligand dependent IL15-IL15Ra production, 1 million HEK-293T cells were plated in a 6-well plate in growth media containing DMEM and 10 FBS and incubated overnight at 37° C., 5% CO2. […] Cells were harvested and IL15 levels are analyzed via western blotting using human IL15 antibody (Abcam, Cambridge, UK).
On the technique in general: A western blot detects proteins with antibodies after separation by electrophoresis.

The test system of the next test is T cells. Briefly: IL12/IL2 effect on T cell expansion and IFNgamma positive CD4+/CD8+ T cells. The class given is cell-based, human.
For the next test, the system named is NK-92 cells. The experiment in a line: NK-92 activation markers with IL12 (Table 83). In kind it is cell-based. The conditions noted are these: IL12 10 ng/ml, 18 h. How it is done:
The dependency of the NK-92 cells on cytokines for activation was tested. […] The cells were cultured for 18 hours in the presence of IL12 (10 ng/ml) or varying concentrations of IL15 (100 ng/ml, 20 ng/ml, 4 ng/ml, 0.8 ng/ml, 0.16 ng/ml, 0.032 ng/ml, 0.0064 ng/ml and 0.00128 ng/ml). NK-92 cell activation in response to IL15 and IL12 treatment was evaluated by FACS analysis using a panel of markers whose increased expression is associated with NK activation. These include NKG2D, CD71, CD69; chemokine receptors such as CCR5, CXCR4, and CXCR3, Perforin, Granzyme B and Interferon gamma (IFNg). Prior to FACS analysis for IFNg, cells were cultured for 4 hours with Brefeldin A. NK cells respond to external stimuli such as cytokines in their environment through the phosphorylation of proteins JAK/STAT, ERK, and p38/MAPK pathways which are important for cell activation, signaling and differentiation pathways. The phosphorylation of AKT, STAT3 and STAT5 in response to cytokine addition was measured by FACS. Since phosphorylation events are transient NK-92 cells were treated with the cytokines for 15 or 60 minutes, prior to the analysis.

The subject of the next test is Human T cells. The experiment in a line: IL12 induced differentiation of human T cells, IFN gamma / CD3 flow cytometry. In kind it is cell-based. Conditions: IL12 treated (untreated 0.21). The method, then: IL12 promotes the differentiation of naïve T cells into Th1 cells which results in the secretion of IFN gamma from T cells. Human T cells were treated with IL12 or left untreated and analyzed by flow cytometry for the expression of IFN gamma and T cell marker CD3.
Background: In flow cytometry, cells or beads pass a laser one at a time.

The next test concerns NIH 3T3 cells. The experiment in a line: hDHFR mutant-GFP reporter stability with DMSO, MTX or TMP (FACS). The class given is cell-based. Conditions: for GFP intensity Fold Change vs DMSO: 48 h; for Destabilizing mutation co-efficient: GFP intensity vs hDHFR (WT); for Destabilizing mutation co-efficient / Median Fluorescence signal with DMSO: no ligand; for Median Fluorescence signal with DMSO: hDHFR-GFP, DMSO 48 h. The text has this: Known destabilizing mutations in E. coli DHFR (ecDHFR) were mapped onto the structure of human DHFR (hDHFR) and corresponding mutations in wild type hDHFR protein were generated using site directed mutagenesis. hDHFR mutants were then fused to a linker, GGSGGG (SEQ ID NO: 2728) and a GFP reporter gene at the N terminus. […] The hDHFR N terminus mutant construct cloned into pLVX. IRES. The reporter constructs were transfected into NIH 3T3 cells. […] DMSO was used as control. Fluorescence signal was measured by FACS and median fluorescence signal intensity was calculated. The destabilizing mutation co-efficient was calculated as the fold change in GFP intensity in the hDHFR mutant constructs compared to the hDHFR (WT) in the absence of the ligand. Destabilizing mutation co-efficients less than 1 are desired in DDs.
Percentage of GFP positive cells as a measure of ligand dependent DD stabilization in each transfection was calculated using FACS Calibur™ (see Table 46).

Another test deals with hDHFR. Briefly: Immunoblot of hDHFR WT and mutants after TMP, MTX or DMSO. The conditions noted are these: MTX or DMSO 48 h. The class given is cell-based, human. The source says:
The results were consistent using both the AcGFP antibody as well as the hDHFR antibody.

The test system of the next test is HEK 293T cells. Briefly: GFP-hDHFR C terminus fusions, MFI (FACS). In kind it is cell-based, human. The conditions noted are these: 1 μM MTX or 50 μM TMP, 48 h. The method, then:
DDs may be positioned upstream or downstream of the payload within an SRE. hDHFR mutants generated by structure guided mutagenesis as discussed in example 2 were fused at the C-terminus of GFP to test if the hDHFR mutants can destabilize proteins of interest when fused to the C-terminus of the protein of interest. A linker, GGSGGG (SEQ ID NO. 6413) was placed between GFP and hDHFR and cloned into pLVX.IRES. Puro.
Following the incubation, median fluorescence intensity (MFI) was measured using FACS.

On to “OT-IL15-006: IL15-IL15Ra fusion with ecDHFR (R12Y, E129K) DD”, for which the results for the “Median Fluorescence Intensity, surface IL15-IL15Ra” value with HCT-116 (10 μM TMP) and with HCT-116 (DMSO) were 2978 and 764, respectively. Also, the Stabilization ratio in the test with HCT-116 (TMP vs DMSO) stood at 3.90. Besides, the Destabilization ratio in the test with HCT-116 (vs constitutive OT-IL15-008, no ligand) was determined as 0.14. Moreover, the “IL15 stabilization by western blot (FIG. 24A)” value in the test with HEK-293T cells was “modest ligand dependent stabilization of IL15”.

As to “IL12: cytokine added to T cells or NK-92 cells”, the “Requirement for T cell expansion (FIG. 37A)” value with T cells (14 days, CD3/CD28 stimulation) is reported as “may be dispensable”. In the test with T cells (T cells in vitro, day 16), the “IL12 dose causing Th1-skewing and IFN gamma production” value is 0.1 ng/mL. Also, the “EC50, IFNgamma positive cells” value with T cells (first protocol (7 days IL12), CD8 cells) was found to be 0.05 ng/mL. Further, the “EC50, IFNgamma positive cells” value in the test on T cells (second protocol (14 days), CD4 cells) amounted to 0.012 ng/mL. Further, in the test on T cells (second protocol (14 days), CD8 cells), the “EC50, IFNgamma positive cells” value turned out to be 0.065 ng/mL. The “EC50, IFNgamma positive cells” value with T cells (third protocol, IL12 final 5 days, CD4 cells) stood at 0.024 ng/mL. Besides, in the test on T cells (third protocol, IL12 final 5 days, CD8 cells), the “EC50, IFNgamma positive cells” value amounted to 0.04 ng/mL. Besides, in the test on NK-92 cells, the “Fold change in MFI vs untreated, CCR5” value was found to be 1.60; the “Fold change in MFI vs untreated, Granzyme” value turned out to be 1.87; the “Fold change in MFI vs untreated, IFNg” value amounted to 1.74; the “Fold change in MFI vs untreated, Perforin” value worked out at 1.67. Further, the “Fold change vs untreated, IFNg (supernatant)” value in the test on NK-92 cells was 666.15. For the same molecule, the “Percentage of IFN gamma positive T cells” value in the test with Human T cells is 22.3%.

B1: OT-hDHFRN-005: hDHFR A125F, Y122I-GFP (protein, UniProt P00374 1-187, looked up, variant A125F Y122I)
Dihydrofolate reductase: MVGSLNCIVAVSQNMGIGKNGDLPWPPLRNEFRYFQRMTTTSSVEGKQNLVIMGKKTWFSIPEKNRPLKGRINLVLSRELKEPPQGAHFLSRSLDDALKLTEQPELANKVDMVWIVGGSSVIKEFMNHPGHLKLFVTRIMQDFESDTFFPEIDLEKYKLLPEYPGVLSDVQEEKGIKYKFEVYEKND
modifications: GFP fusion
notes: hDHFR A125F, Y122I-GFP
In the case of B1, in the test on NIH 3T3 cells (1 μM MTX), the “% GFP positive cells” value stood at 89.6% and the “GFP intensity Fold Change vs DMSO” value is given as 26.98. Also, in the test with NIH 3T3 cells (10 μM TMP), the “% GFP positive cells” value was determined as 54.7% and the “GFP intensity Fold Change vs DMSO” value is reported as 6.24. For the same molecule, the “% GFP positive cells” value in the test with NIH 3T3 cells (DMSO) amounted to 0.64%. Further, in the test on NIH 3T3 cells, the Destabilizing mutation co-efficient amounted to 0.14 and the “Median Fluorescence signal with DMSO” value came to 2.55. Also, in the test on hDHFR, the “Protein level stabilization (immunoblot, FIG. 19)” value (shortened to “Protein level stabilization”) is “stabilized following treatment with both MTX and TMP”.

B2: OT-hDHFRN-007: hDHFR L94A, T147A-GFP (protein, UniProt P00374 1-187, looked up, variant L94A T147A)
Dihydrofolate reductase: MVGSLNCIVAVSQNMGIGKNGDLPWPPLRNEFRYFQRMTTTSSVEGKQNLVIMGKKTWFSIPEKNRPLKGRINLVLSRELKEPPQGAHFLSRSADDALKLTEQPELANKVDMVWIVGGSSVYKEAMNHPGHLKLFVTRIMQDFESDAFFPEIDLEKYKLLPEYPGVLSDVQEEKGIKYKFEVYEKND
modifications: GFP fusion
notes: hDHFR L94A, T147A-GFP
As for B2, in the test with NIH 3T3 cells (1 μM MTX), the “% GFP positive cells” value is given as 40.7% and the “GFP intensity Fold Change vs DMSO” value is recorded as 4.46. Also, in the test on NIH 3T3 cells (10 μM TMP), the “% GFP positive cells” value turned out to be 0.52% and the “GFP intensity Fold Change vs DMSO” value is recorded as 1.00. For the same molecule, the “% GFP positive cells” value in the test with NIH 3T3 cells (DMSO) is 0.26%. In the test with NIH 3T3 cells, the Destabilizing mutation co-efficient is reported as 0.15 and the “Median Fluorescence signal with DMSO” value was 2.67. In the test on hDHFR, the “Protein level stabilization” value is “stabilization exclusively with MTX”.

B3: OT-hDHFRN-008: hDHFR G21T, Y122I-GFP (protein, UniProt P00374 1-187, looked up, variant G21T Y122I)
Dihydrofolate reductase: MVGSLNCIVAVSQNMGIGKNTDLPWPPLRNEFRYFQRMTTTSSVEGKQNLVIMGKKTWFSIPEKNRPLKGRINLVLSRELKEPPQGAHFLSRSLDDALKLTEQPELANKVDMVWIVGGSSVIKEAMNHPGHLKLFVTRIMQDFESDTFFPEIDLEKYKLLPEYPGVLSDVQEEKGIKYKFEVYEKND
modifications: GFP fusion
notes: hDHFR G21T, Y122I-GFP
Take B3: in the test on NIH 3T3 cells (1 μM MTX), the “% GFP positive cells” value is 86.6% and the “GFP intensity Fold Change vs DMSO” value is on record as 14.53. Besides, in the test with NIH 3T3 cells (10 μM TMP), the “% GFP positive cells” value was 2.92% and the “GFP intensity Fold Change vs DMSO” value came to 1.30. Further, the “% GFP positive cells” value with NIH 3T3 cells (DMSO) was found to be 0.61%. Moreover, in the test with NIH 3T3 cells, the Destabilizing mutation co-efficient is given as 0.18 and the “Median Fluorescence signal with DMSO” value was 3.27. For the same molecule, the “Protein level stabilization” value with hDHFR is on record as “stabilization exclusively with MTX”.

B4: OT-hDHFRC-015: GFP-hDHFR (A125F, Y122I) (protein, UniProt P00374 1-187, looked up, variant A125F Y122I)
Dihydrofolate reductase: MVGSLNCIVAVSQNMGIGKNGDLPWPPLRNEFRYFQRMTTTSSVEGKQNLVIMGKKTWFSIPEKNRPLKGRINLVLSRELKEPPQGAHFLSRSLDDALKLTEQPELANKVDMVWIVGGSSVIKEFMNHPGHLKLFVTRIMQDFESDTFFPEIDLEKYKLLPEYPGVLSDVQEEKGIKYKFEVYEKND
modifications: N-terminal GFP fusion
Turning to B4, the “MFI change over DMSO, GFP-hDHFR C terminus fusion (FIG. 20)” value with HEK 293T cells is “several fold increase in MFI over DMSO with both MTX and TMP”.
